Target: preKARS2 (precursor of human mitochondrial lysyl-tRNA synthetase) (Homo sapiens, UniProt Q15046-2 Q15046-2:1-625)
Assay: EMSA; 10 mM MgCl2, 30 C
Settings: tags: C-terminal 6xHis, thrombin site and N-terminal 6xHis deleted, label: 5'-32P
Experimental: Purified RNA was dephosphorylated with alkaline phosphatase (Boehringer Mannheim) and labeled at the 59-end with c-32P-ATP using T4 polynucleotide kinase (Promega). The labeled RNA was denatured at 100° C. and then slowly cooled down to the room temperature. For RNA binding assays, the appropriate amount of protein and labeled RNA were mixed in […] of the buffer containing 20 mM Tris-HCl pH 7.5, 150 mM NaCl, 10 mM MgCl2, 5 mM DTT, 10% glycerol, 0.1 mg/ml BSA and incubated at 30° C. for 15 min. The mixture was separated by native 8% PAGE in […] buffer (pH 8.3) and 5% glycerol, followed by Typhoon-Trio (GE Healthcare) scanning and quantification as described in.

preKARS2 (precursor of human mitochondrial lysyl-tRNA synthetase), sequence (Q15046 other isoform, or with tags, fused parts or gaps): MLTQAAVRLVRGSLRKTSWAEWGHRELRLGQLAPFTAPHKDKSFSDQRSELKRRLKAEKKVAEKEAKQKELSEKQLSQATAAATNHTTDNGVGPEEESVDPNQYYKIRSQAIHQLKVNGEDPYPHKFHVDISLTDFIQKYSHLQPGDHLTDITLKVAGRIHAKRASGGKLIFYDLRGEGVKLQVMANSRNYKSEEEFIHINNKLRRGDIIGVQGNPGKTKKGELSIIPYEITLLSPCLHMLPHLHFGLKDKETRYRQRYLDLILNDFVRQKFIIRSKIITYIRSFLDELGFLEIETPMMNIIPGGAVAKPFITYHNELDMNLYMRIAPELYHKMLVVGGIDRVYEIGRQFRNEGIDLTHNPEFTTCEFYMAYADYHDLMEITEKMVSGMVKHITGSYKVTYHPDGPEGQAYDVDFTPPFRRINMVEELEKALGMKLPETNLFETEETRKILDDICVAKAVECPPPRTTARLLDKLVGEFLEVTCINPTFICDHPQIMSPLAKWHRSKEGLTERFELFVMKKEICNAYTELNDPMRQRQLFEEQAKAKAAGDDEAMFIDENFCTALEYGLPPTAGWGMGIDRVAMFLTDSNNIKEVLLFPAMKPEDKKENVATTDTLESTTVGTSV

B1: HF RNA (ssRNA)
RNA: GGUCUUUACAGUGCUUACUUCUCGAGCCCCCUACAGGGCUCCA
B1: no binding (F-hairpin only, D-arm deleted).

B2: HD RNA (ssRNA)
RNA: GCGCAAUCGGUAGCGCCUCUUUACAGUGCUUAGUUCUC
B2: no binding (D-arm only, F-hairpin deleted).

Source: US20150361450, “VECTOR FOR THERAPY OF MITOCHONDRIAL DISEASE” (UNIVERSITE DE STRASBOURG, published 2015)
